Test results reported in the nanobody polyreactivity screen of Harvey et al. (2022).

Assay: yeast display, Sf9 membrane polyspecificity reagent, FACS + sequencing; frameworks hold sequencing errors
Procedure, shortened: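 Polyreactivity labels are assigned by the sorting gate from which each nanobody was recovered. The gates were low and high (top ~1%), set on anti-HA fluorescence for expression and streptavidin fluorescence for reagent binding. Before sorting, galactose-induced (36–48 hours) yeast display cells were stained for 1 hour at 4 °C with 10% biotinylated, detergent-solubilized Sf9 membrane reagent.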

Sequence	polyreactivity (PSR sort gate)
QVQLVESGGGLVQAGGSLRLSCCASGRTFLDNALGWYRQAPGKERQLVAAISGGGGTYYADSVKGRFTISRDNAKNTVYLQMNSLKPEDTAVYYCATDRGHKWVFYVTYYRYESWGQGTQVTVSS	low polyreactivity
QVQLVESGGGLVQAGGSLRLSCAASGFTFWSYTMGRYRQPHGKETELVADISWSGGSTYYADSVKGRFTISRDNAKNTVYLQMNSLKPEDTAVLYCNADGPFWARRSSRYYWGQGTQVTVSS	high polyreactivity
QVQLVESGGGLVQAGGSLRISCAASGINFSVNAMGWYRQAPGKERELVAAITYSGGSTYYADSVKGRFTISRDNAKNTVYLQMNSLKPEDTAVYYCAAETYSSGEWYDYWGQGTQVTVSS	high polyreactivity
QVQLVESGGGLVQAGGSLRLSCAASGSTFGRYVMGLYRQAPGQERELVAAISKNAGSTYYADSVKGRFTISRDNAKNTVYLQMNSLKPEDTAVYYCAADWRTKGYDSLGQGTQVTVSS	high polyreactivity
QVQLVESGGGLDQAGGSLRLSCAASGSIFGNNAMGWYRQAPGKERELVASISSSSGSTNYADSVKGRFTISRDNAKNTVYVQMNSLKPEDTAVYYCAARWRYWSRKYDYWGQGTQVTVSS	high polyreactivity
QVQLVESGAGLVQAGGILLLSSAASGRIFLFYSLGWSRQEPGKERELVAAISVRGGSTYYADSVKGRITISRDNAKNTVFLQMNSLKPEDTAVYYCNAPNYRSRFDYWGQGTQVTVSS	high polyreactivity
QVQLVESGGGLVQAGCSLRLSCAASGFIFTTYAMGWYRQEPGKERELVAAISGRGGTTYYADSVKGRFTISLDTAKNTVYLQMNSLKPEDTAVYYCAADGYPGDDYWGQGTQVTVSS	high polyreactivity
QVQLVESVGGLDQAGGSLRLSCAASGYTFSLNAMGWYRQAPGKEREFVATIRSSGARTSYADSVKGRFTISRDNAKNTVYLQMNSLKPEDTAVYYCAARYYNSYRYAMGYWGQGTQVTVSS	high polyreactivity
QVQLVDSGGGLVQAGGSLRLSCAASGINFVWNVMGWYRQAPGKERELVADITSGGRTHYADSVKGRFTISRDNAKNTVYVQMNSLKPDDTAVYYCAARKYWRYQNYDYWGQGTQVTVSS	low polyreactivity
QVQLVESGGGLVQAGGSLRLSCAASGSTFFGNAMGWYRQAPGKERELVAAITSGGSTNYADSVKGRFTISRDNAKNTVYFQMNSLKPEDTAVYYCAKPSRWGWTGFYAYDYWGQGTQVTVSS	low polyreactivity
QVQLVESGGGLVQAGGSLSLSCAASGFIFNHYAMRWYRQAPGTETEFVAAISLSGGSTYYAVSVKGRFTISRDNAKKTVYLQRNSLKPEDTAVYYCAASYNGLWHGDYDYWGHGTQVTVSS	low polyreactivity
QVQLVESGGGLVQAGGSLRLSCAASGGIFWRYAMGWYRQAPGKERELVAAISSRGGSTYYADSVKGRFTISRDNAKNTVYLQMNSLKPEDTAVYYCAAAFLSRVQGYDSWGQGTQVTVSS	high polyreactivity
QVQLVESGGGLVQAGGSHRLSCDASGYIFRRYAMGWYRQAPGKERELVAAISWRGGSTYYADSVKGRFTISRDNAKNTVYLQMNSLKPEDSAVYYCAKVVPGAGHLDEYWGQGTQVTVSS	high polyreactivity
QVQLVESGGGLVQAGGSLRLSCAASGFTFRYYAMGWYRQAPGKERELVAGISWRGGSTNYADSVKGRFTISRDNAKNTVYLQMNSLKPEDTAVYYCNAVSYSFPIHRVRPTWYDYWGQGTQVTVSS	high polyreactivity
QVQLVESGGGLFQAGGSLRLSCAASGRTFRVYAMGWYRQAPGKEREFVAAISYSGGRTNYADSVKGRFTISRDYAKNTVYLQKNSLKPEDTAVYYCAARYTWAEGDYWGQGTQVTVSS	low polyreactivity
QVQLVESCGGLVQAGGSLRLSCASSGLTFSRYAMGWSRQAPGKERELVAVISRSGGSTYYADSVKGRFTISRDNAKTTVYLHMNSLKPEDTAVYYCAVRAYIKMDYWGQGTQVTVSS	high polyreactivity
QVQLVESGGGLVQAGGSLRLSCAASGRTFVTYAMGWYRQAPGKERELVAVITNGGGTYYADSVKGRFTISRDNAKNTVYLQMNSLKPEDTALYYCNNDRYGLRRWVYSYLGGYDYWGQGTQVTVSS	low polyreactivity
QVQLVESGGGLVQAGGSLRLSCAASGHIFFVNAMGWYRQAPGKERELVAAINSVGSTYYADSVKGRFTISRDNAKNTVYLQMNSLKPEDTAVYYCAADSVYSQRHSWAYEDDYWGQGTQVTVSS	low polyreactivity
QVQLVESGGGLVQAGGSLRLSCAASGFTFSTYAMGWYRQAPGKERELVAAISRSGGSTYYADSVKGRFTISRDNAKNTVYLQMNSLKPEDTAVYYCAADGLRRESSYYYWGQGTQVTVSS	high polyreactivity
QVQLVESGGGLVQAGGSLRLSCAASGRIFKYYAMGWYRQAPGKERELVAAISRGGSTYYADSVKGRFTISRDNAKNTVYLQMNSLKPEDTAVYYCNRLSNNREYDYWGQGTQVTVSS	high polyreactivity
QVQLVESGGGIVQAGGSLRLSSAASGRIFYRYAMGWYRQAPGKERELVASITRSGITHYADSVNGRFTISRDNAKNTVYLQMNSLKPEDTAVYYCNKRPWHRSSRPFYYWGQGTQVTVSS	high polyreactivity
QVQLVESGGGLVQAGGSLRLSCAASGSTFAPYAMGWYRQAPGKERELVAAIRSSGGSTYYADSVKGRFTISRDNAKNTVYLQMNSLKPEDTAVYYCSDDYYTSADYVDYYYWGQGTQVTVSS	low polyreactivity

Sequence	polyreactivity (PSR sort gate)
QVQLVESGGGLVQAGGSLRLSCAASGLTIASYVMGWYRQAPGKERELVAAISSSGDSTYYADSVKGRFTISRDNAKNTVYLQMNSLKPEDTAVYYCAAKDSVWGQGTQVTVSS	low polyreactivity
QVQLVESGGGLVQAGGSLRLSCAASGRIFSRYAMGWYRQAPGKERELVAAINKSGGSTYYADSVKGRFTISRDNAKNTVYLQMNSLKPEDTAVYYCAAALGRRRTGYDYWGQGTQGTVSS	high polyreactivity
QVQLVESGGGLVQAGGSLRLSCAASGRTFSKYAMGWYRQAPGKERELVAAITSGGGTYYADSVKGRFTISRDNAKNTVYLQMNSLKPEDTAVYYCAVSVTTVSTYDYWGQGTQVTVSS	low polyreactivity
QVQLVESGGGLVQAGGSLRLSCAASGITFTSYAMGWYRQAPGKERELVAAISSSGVRTYYADSVKGRFTISRDNAKNTVYLQMNSLKPEDTAVYYCATRRRVLNCYDYWGQGTQVTVSS	high polyreactivity
QVQLVESGGGLVQAGGSLRLSCAASGFIFSRYVMGWYRQAPGKERELVAAISGSGGRTYYADSVKGRFTISRDKAKNTVYLQMNSLKPEDTAVYYCAARFLSPYHYYYWGQGTQVTVSS	high polyreactivity
QVQLVESGGGLVQAGGSLRLSCAASGRIFYYNSMGWYRQAPGKERELVASITGSGGSTYYADSVKGRFTISRDNAKNTVYLQMNSLKPEDTAVYYFAKREYLYPFYYVAKYDYWGQGTQVTVSS	low polyreactivity
QVQLVESGGRLVQAGGSLRLSCAASGITFGNAMGWYRQAPGKERELVAGITFSSGSTYYADSVKGRFTISRDNAKNTVYLLMNSLKPEDTAVYYCATDSSKHPYSPTLLKFDYWGQGTQVTVSS	low polyreactivity
QDQLVESGGGLVQAGGSLRLSCAASGRTFYLYAMGWYRQAPGKERELVARISWGGGRTYYADSVKGRFTISRDNAKNTVYLQMNSLKPEDTAVYYCNAQSPRGFTTTRQVYPLNGYWGQGTQVTVSS	high polyreactivity
QVQLVESGGGLVQAGGSLRLSCAASGGIFGVYAMVWYRQAPGKERELVAAISQSDTSTYYADSVKGRFTISRDNAKNTVYLQMNSLKPEDTAVYYCADEYYLDYYTWFDYWGQGTQVTVSS	high polyreactivity
QVQLVESGGGLVQAGGSLRLSCAATGFTFEYYAMGWYRKAPGKERELVAAITSGGSTNYADSVKVRFTISRDNAKNTVSLQKNSLKPEDTAVYYCATSGNNYYYALYGYWGQGTQVTVSS	low polyreactivity
QVQLVESGGGLVQAGGSLRLSCAASGRIFGWYAMGWYRQAPGKERELVAAISRSGGSTYYADSVKGRFTISRDNAKNTVYLQMNSLKPEDTAVCYCAAAFSLGMYWGQGTQVTVSS	high polyreactivity
QVQIVESGGGLVQAGGSLRLSCAASGLTFIRYAMGWYRQAPGKERELVAAISTSGGRTYYADSVKGRFTISRDNAKNTVYLQMNSLKPEDTAVYYCAKYQSTGYTQSSYDYRGQGTQVTVSS	high polyreactivity
QVQLVESGGGLVQAGGSLRLSCAASGSILALYTMGVYRQAPGKERELVASISSGGRTNYADSVKGRFTISRDNAKNTVYLQMNSLKPEDTAVYYCARSRLGRAYGRYDYWGQGTQVTVSS	low polyreactivity
QVQLEESGGGLVQAGGSLRLSCAASGSIFYLNDMGWYRQAPGKEREFVAAIDSRGTSTYYADSVKGRFTISRDNAKNTVYLQMNSLKPEDTAVYYCAADSYALEYDYWGQGTQVTVSS	low polyreactivity
QVQLVESGGGLDQAGGSLRLTCAASGNTFRSYAMGWSRQAPGKEREFVAAISLSGGNTYYADSVKGRFTISRDNAKNTVYVQMNSLKPEDTAVYYCAADYEYSGYGYWGQGTQVTVSS	high polyreactivity
QVQLVESGGGLVQAGGSLRLSCAASGSTFVRYVMGWYRQAPGKERELVAAISRRGGSTYYADSVKGRFTISRDNAKNTVYLQMHSLKPEDSAVYYCARTVGYSTLLESVSWGQGTQLTVSS	high polyreactivity
QVQRVESGGGLVQAGGSLGLSCAATGSTFTVYAMGWYRQATGTERELVASITFTGGSTYYADSVKGRFTISRDNAKNTVYLQMISLKPEVTEVYYCAAYGWRVHDRWFFERDYWGQGTQVTVSS	high polyreactivity
QVQLVESGGGLVQAGGSLRLSCAASGRTFPDNAMGWYRQEPGKERELVAVINWGGTSTYYADSVKGRFTISRDNAKNTFYLQMNSLKPEDTAVYYCAARARYPRVGYNYWGQGTQVTVSS	high polyreactivity
QVQLVESGGGLVQAGGSLRLSCAASGRIFSRYAMGWYRQAPGKERELVAAIRWSGGRTYYADSVKGRFTISRDNAKNTVYLQMNSLKPEDTAVYYCAKYRYTVAGYNYWGQGTQVTVSS	high polyreactivity
QVQLVESGGGLVQAGGSLRLSCAASGRIFRLYAMGWYRQAPGKEREFVATITWIGGRTYYADSVTGRFTISRDNAKNTVYLQMNSLKPEDTAVYYCAADPGYTYEYWGQGTQVTVSS	low polyreactivity
QVQLVESGGGLVQAGGSLRLSCAASGRIFPKYAMGWYRQAPGKERELVAAITGIGTSTYYADSVKGRFTISRDNAKNTVYLQMNSLKPEDTAVYYCAADTWTIVDYGYWGQGTQVTVSS	low polyreactivity
